# Source: patent publication US20210230570
# Tests used:
# [1] = test system: Antithrombin III (AT-III), plasma purified human, in complex with full-length unfractionated heparin (UFH)
# Factor X (FX) = Factor X (FX) (UniProt P00742)
# Factor X = Factor X (UniProt P00742)
# [2] = test system: plasma purified human AT-III (antithrombin III), in complex with low molecular weight heparin; test: same assay; ratio of K0.5 to that of Catalyst Biosciences WT FIXa
# [3] = target: Factor X (FX), active site titrated and DFP/EGR-cmk treated zymogen (UniProt P00742)
# Sequence of Factor X (FX), active site titrated and DFP/EGR-cmk treated zymogen (P00742 41-488): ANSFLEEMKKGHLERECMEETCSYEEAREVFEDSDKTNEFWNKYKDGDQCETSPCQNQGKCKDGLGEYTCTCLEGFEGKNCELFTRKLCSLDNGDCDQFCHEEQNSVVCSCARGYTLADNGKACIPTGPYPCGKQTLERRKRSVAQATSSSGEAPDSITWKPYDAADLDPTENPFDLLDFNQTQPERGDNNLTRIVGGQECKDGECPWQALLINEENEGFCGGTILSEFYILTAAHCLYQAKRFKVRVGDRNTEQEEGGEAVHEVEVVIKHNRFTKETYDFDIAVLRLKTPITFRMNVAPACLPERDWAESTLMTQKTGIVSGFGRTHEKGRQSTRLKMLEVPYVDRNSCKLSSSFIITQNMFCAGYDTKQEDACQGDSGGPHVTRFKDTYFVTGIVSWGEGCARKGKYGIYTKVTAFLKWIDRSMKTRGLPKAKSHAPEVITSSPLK
# Sequence of Factor X (P00742 41-488): as above
# Sequence of Factor X (FX) (P00742 41-488): as above
substance,measurement,setting,value
FIXa N157Q,K0.5,[1],16 nM
FIXa D104N/K106S/Y155F,K0.5,[1],6 nM
same,K0.5-mut/K0.5-wt,[1],0.3
Plasma Purified FIXa,K0.5,[1],30 nM
FIXa-K106N/V108S,% of WT (kcat/KM),Factor X (FX),60%
same,kcat/KM (M^-1s^-1),Factor X (FX),2.8e+07 M⁻¹ s⁻¹
same,kcat,Factor X,2.5 s⁻¹
same,K0.5-mut/K0.5-wt,[2],1.6
FIXa-A103N/N105S/Y155F,% of WT (kcat/KM),Factor X (FX),85%
same,kcat/KM (M^-1s^-1),Factor X (FX),3.9e+07 M⁻¹ s⁻¹
same,kcat,Factor X,3.2 s⁻¹
FIXa Y155Q,K0.5,[1],23 nM
FIXa K5A (K[5]A by chymotrypsin numbering),kcat,[3],3.1 s⁻¹
FIXa-D64N,kcat/KM (M^-1s^-1),Factor X (FX),1e+07 M⁻¹ s⁻¹
same,kcat,Factor X,1.2 s⁻¹
FIXa A103N/N105S (A[103]N/N[105]S by chymotrypsin numbering),kcat,[3],3.1 s⁻¹
FIXa S53A (S[53]A by chymotrypsin numbering),kcat,[3],3.7 s⁻¹
FIXa-S53A,% of WT (kcat/KM),Factor X (FX),76%
same,kcat/KM (M^-1s^-1),Factor X (FX),3.5e+07 M⁻¹ s⁻¹
same,kcat,Factor X,3.7 s⁻¹
FIXa K5A,KM,Factor X (FX),0.0654 µM
same,K0.5,[1],22 nM
same,K0.5-mut/K0.5-wt,[1],1.2
FIXa D104N/K106S,K0.5,[1],20 nM
same,K0.5-mut/K0.5-wt,[1],1
FIXa-D64A,kcat/KM (M^-1s^-1),Factor X (FX),2.5e+06 M⁻¹ s⁻¹
same,kcat,Factor X,0.3 s⁻¹
"BeneFIX Coagulation Factor IX (Recombinant), activated (FIXa)",K0.5-mut/K0.5-wt,[2],0.9
FIXa S53A,K0.5,[1],27 nM
same,K0.5-mut/K0.5-wt,[1],1.4
FIXa-D104N/K106S,% of WT (kcat/KM),Factor X (FX),83%
same,kcat/KM (M^-1s^-1),Factor X (FX),3.8e+07 M⁻¹ s⁻¹
same,K0.5-mut/K0.5-wt,[2],0.9
FIXa-D104N/K106S/Y155F,% of WT (kcat/KM),Factor X (FX),78%
same,kcat/KM (M^-1s^-1),Factor X (FX),3.6e+07 M⁻¹ s⁻¹
same,kcat,Factor X,2.9 s⁻¹
FIXa S61A,K0.5,[1],19 nM
same,K0.5-mut/K0.5-wt,[1],1
FIXa T169A,K0.5,[1],17 nM
FIXa Y155H,K0.5,[1],25 nM
FIXa S158D,K0.5,[1],15 nM
FIXa S158E,K0.5,[1],14 nM
FIXa D104N/K106S (D[104]N/K[106]S by chymotrypsin numbering),kcat,[3],3.1 s⁻¹
FIXa T172A,K0.5,[1],16 nM
FIXa D64N (D[64]N by chymotrypsin numbering),kcat,[3],1.2 s⁻¹
FIXa Y155F,K0.5,[1],13 nM
FIXa N167Q,K0.5,[1],12 nM
FIXa N157D,K0.5,[1],17 nM
FIXa D85N (D[85]N by chymotrypsin numbering),kcat,[3],4.2 s⁻¹
FIXa-S61A,% of WT (kcat/KM),Factor X (FX),105%
same,kcat/KM (M^-1s^-1),Factor X (FX),4.8e+07 M⁻¹ s⁻¹
FIXa-K5A,kcat,Factor X,3.5 s⁻¹
FIXa-D85N,% of WT (kcat/KM),Factor X (FX),153%
same,kcat/KM,Factor X (FX),7e+07 M⁻¹ s⁻¹
same,kcat/KM (M^-1s^-1),Factor X (FX),7.3e+07 M⁻¹ s⁻¹
same,kcat,Factor X,4.1 s⁻¹
same,K0.5-mut/K0.5-wt,[2],1.1
FIXa-A103N/N105S,K0.5-mut/K0.5-wt,[2],1.1
FIXa D104N/K106S/Y155F (D[104]N/K[106]S/Y[155]F by chymotrypsin numbering),kcat,[3],2.9 s⁻¹
FIXa N167D,K0.5,[1],12 nM
FIXa A103N/N105S/Y155F (A[103]N/N[105]S/Y[155]F by chymotrypsin numbering),kcat,[3],3.2 s⁻¹
FIXa D85N,K0.5,[1],17 nM
same,K0.5-mut/K0.5-wt,[1],0.9
FIXa D64A (D[64]A by chymotrypsin numbering),kcat,[3],0.3 s⁻¹
FIXa A103N/N105S,K0.5,[1],20 nM
same,K0.5-mut/K0.5-wt,[1],1
FIXa A103N/N105S/Y155F,K0.5,[1],11 nM
same,K0.5-mut/K0.5-wt,[1],0.6
FIXa D64A,K0.5,[1],16 nM
same,K0.5-mut/K0.5-wt,[1],0.8
FIXa T159A,K0.5,[1],33 nM
